From publication PMC3271077
Where two headings read alike, the source gives them in different places.

Legend:
Assay in all cases: SPR; Biacore 3000; HopZ1a proteins, GST or BSA immobilised on CM5 chips by amine coupling; 500 µg/ml (Figure S1A: 250 µg/ml) tubulin injected; 25°C, HBS-EP running buffer (0.01 M HEPES pH 7.4, 0.15 M NaCl, 3 mM EDTA, 0.005% Surfactant P20)
[1] = target: HIS-HopZ1a (Pseudomonas syringae pv. syringae A2) (UniProt Q6VE93)
[2] = target: HIS-HopZ1a(K289R) (Pseudomonas syringae pv. syringae A2) (UniProt Q6VE93)
[3] = target: GST-HopZ1a (Pseudomonas syringae pv. syringae A2) (UniProt Q6VE93)
[4] = target: HIS-HopZ1a (Pseudomonas syringae pv. syringae A2) (UniProt Q6VE93); remark: listed apart in the source
[5] = target: HIS-HopZ1a(C216A) (Pseudomonas syringae pv. syringae A2) (UniProt Q6VE93)

Substance	RU difference [1]	RU difference [2]	RU difference [3]	RU difference [4]	RU difference (250 µg/ml tubulin) [4]	RU difference (6973 RU HIS-HopZ1a immobilised) [4]	RU difference (13598 RU HIS-HopZ1a immobilised) [4]	RU difference (18289 RU HIS-HopZ1a immobilised) [4]	RU difference [5]	RU difference (250 µg/ml tubulin) [5]
bovine brain tubulin heterodimers (from UniProt Q6B856 1-445) (complex)	117 RU	186 RU	36 RU	1050 RU	630 RU	59 RU	324 RU	615 RU	1150 RU	463 RU
soybean tubulin (complex)	–	–	305 RU	1230 RU	–	–	–	–	–	–
